In paper PMC10089223 (Proceedings of the National Academy of Sciences of the …, 2022):

B1: AtARF2-FL OPCA (D797-8S) (natural protein, Arabidopsis thaliana, UniProt Q94JM3 1-859, looked up)
chain: MASSEVSMKGNRGGDNFSSSGFSDPKETRNVSVAGEGQKSNSTRSAAAERALDPEAALYRELWHACAGPLVTVPRQDDRVFYFPQGHIEQVEASTNQAAEQQMPLYDLPSKLLCRVINVDLKAEADTDEVYAQITLLPEANQDENAIEKEAPLPPPPRFQVHSFCKTLTASDTSTHGGFSVLRRHADECLPPLDMSRQPPTQELVAKDLHANEWRFRHIFRGQPRRHLLQSGWSVFVSSKRLVAGDAFIFLRGENGELRVGVRRAMRQQGNVPSSVISSHSMHLGVLATAWHAISTGTMFTVYYKPRTSPSEFIVPFDQYMESVKNNYSIGMRFKMRFEGEEAPEQRFTGTIVGIEESDPTRWPKSKWRSLKVRWDETSSIPRPDRVSPWKVEPALAPPALSPVPMPRPKRPRSNIAPSSPDSSMLTREGTTKANMDPLPASGLSRVLQGQEYSTLRTKHTESVECDAPENSVVWQSSADDDKVDVVSGSRRYGSENWMSSARHEPTYTDLLSGFGTNIDPSHGQRIPFYDHSSSPSMPAKRILSDSEGKFDYLANQWQMIHSGLSLKLHESPKVPAATDASLQGRCNVKYSEYPVLNGLSTENAGGNWPIRPRALNYYEEVVNAQAQAQAREQVTKQPFTIQEETAKSREGNCRLFGIPLTNNMNGTDSTMSQRNNLNDAAGLTQIASPKVQDLSDQSKGSKSTNDHREQGRPFQTNNPHPKDAQTKTNSSRSCTKVHKQGIALGRSVDLSKFQNYEELVAELDRLFEFNGELMAPKKDWLIVYTDEENDMMLVGSSPWQEFCCMVRKIFIYTKEEVRKMNPGTLSCRSEEEAVVGEGSDAKDAKSASNPSLSSAGNS

Assays:
[1] = biological target: AtARF2-DBD (DNA binding domain of Arabidopsis thaliana auxin response factor 2) (Arabidopsis thaliana)
[2] = biological target: the molecule itself
[3] = biological target: B1

Row | Kd [1] | Kd [3] | Molecule | Kd [2]
1 | 1900 nM | – | AtARF2-DBD (DNA binding domain of Arabidopsis thaliana auxin response factor 2) (domain or fragment) | –
2 | – | – | B1 | 410 nM
3 | – | 16 nM | AtARF2-FL K2S (K737S) (natural protein, Arabidopsis thaliana, UniProt Q94JM3 1-859, looked up) MASSEVSMKGNRGGDNFSSSGFSDPKETRNVSVAGEGQKSNSTRSAAAERALDPEAALYRELWHACAGPLVTVPRQDDRVFYFPQGHIEQVEASTNQAAEQQMPLYDLPSKLLCRVINVDLKAEADTDEVYAQITLLPEANQDENAIEKEAPLPPPPRFQVHSFCKTLTASDTSTHGGFSVLRRHADECLPPLDMSRQPPTQELVAKDLHANEWRFRHIFRGQPRRHLLQSGWSVFVSSKRLVAGDAFIFLRGENGELRVGVRRAMRQQGNVPSSVISSHSMHLGVLATAWHAISTGTMFTVYYKPRTSPSEFIVPFDQYMESVKNNYSIGMRFKMRFEGEEAPEQRFTGTIVGIEESDPTRWPKSKWRSLKVRWDETSSIPRPDRVSPWKVEPALAPPALSPVPMPRPKRPRSNIAPSSPDSSMLTREGTTKANMDPLPASGLSRVLQGQEYSTLRTKHTESVECDAPENSVVWQSSADDDKVDVVSGSRRYGSENWMSSARHEPTYTDLLSGFGTNIDPSHGQRIPFYDHSSSPSMPAKRILSDSEGKFDYLANQWQMIHSGLSLKLHESPKVPAATDASLQGRCNVKYSEYPVLNGLSTENAGGNWPIRPRALNYYEEVVNAQAQAQAREQVTKQPFTIQEETAKSREGNCRLFGIPLTNNMNGTDSTMSQRNNLNDAAGLTQIASPKVQDLSDQSKGSKSTNDHREQGRPFQTNNPHPKDAQTKTNSSRSCTSVHKQGIALGRSVDLSKFQNYEELVAELDRLFEFNGELMAPKKDWLIVYTDEENDMMLVGDDPWQEFCCMVRKIFIYTKEEVRKMNPGTLSCRSEEEAVVGEGSDAKDAKSASNPSLSSAGNS | 230 nM
